The nanobody polyreactivity screen of Harvey et al. (2022)

assay: yeast display, Sf9 membrane polyspecificity reagent, FACS + sequencing; frameworks hold sequencing errors
Method in brief: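 Nanobodies came from a synthetic yeast display library in Saccharomyces cerevisiae BJ5465, induced with galactose for 36–48 hours and stained for 1 hour at 4 °C with 10% biotinylated, detergent-solubilized Sf9 membrane reagent. Cells were enriched on streptavidin microbeads and then FACS-sorted, with low and high (top ~1%) gates set on anti-HA fluorescence for expression and streptavidin fluorescence for reagent binding. Each polyreactivity label reflects the gate a clone came from. Genes were amplified by colony PCR, sequenced by MiSeq 2 × 250 and filtered by CDR length.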

Sequence | polyreactivity (PSR sort gate)
QVQLVESGGGLVQAGGSLRLSCAASGRIFIAYTMGWYRPAPGKERELVAAITWNGGSTYYADSVKGRFTISRDNAKNTVYLQMNSLKPEDTAVYYWVVVSRPGPKPAREMDYWGQGTQVTVSS | low polyreactivity
QVQLVESGGGLVQAGGSLRLSCAASGRIFIDNAMGWYRQAPGKERELVAAISWTGGRTYYADSVKGRFTISRDNAKKTVYLQMNSLKPEDPAVYYCAAKQYTRFGYYYWGQGSQVTVSS | high polyreactivity
QVQLVESGGGLVQAGGSLRLSCAASGRIFIEYAMGWYRQAPGKERELVATINSSGGRTYYADSVKGRFTISRDNAKNTVYLQMNSLKPEDTAVYYCAARGSYRGPYNVEYDSWGQGTQVTVSS | low polyreactivity
QVQLVESGGGLVQAGGSLRLSCAASGRIFIQYGMVWYRQAPGKERELVAAIRSGDSTNYADSVKGRFTISRDNAKNTVYLQMNSLKPEDTSVYYCARDRPGDYAGYDYWGQGTQVTVSS | low polyreactivity
QVQLVESGGGLVQAGGSLRLSCAASGRIFIRDARGWYRPAPGKERELVAALTRGGSTYYADSVKGRFTISRDTAKNTVYLQMNSLKPEDTAVYYCAARVGYPYYYWGQGTQVTVSS | high polyreactivity
QVQLVESGGGLVQAGGSLRLSCAASGRIFIRNDMGWYRQAPGKERELVAVITRSGGRTYYADSVKGRFTISRDNAMNTVYLQMNSLKPEDTAVYYCAKRQAFKQAPYEYWGQGSQVTVSS | low polyreactivity
QVQLVESGGGLVQAGGSLRLSCAASGRIFISNAMGWYRQAPGKERELVAAITWIGDRTYYADSVKGRFTISRDNAKITVYLQMNSLKPEDTAVYYCNRVTSRVSGRYSYDYWGQGTQVTVSS | high polyreactivity
QVQLVESGGGLVQAGGSLRLSCAASGRIFISYTMGWDRQAPGKERELVAGIDSSGTSTYYADSVKGRFTISRDNAKNTVYLQMNSLKPEDTAVYYCNVDGNWKDTSTELDYWGQGTQVTVSS | low polyreactivity
QVQLVESGGGLVQAGGSLRLSCAASGRIFITNAMGGYRQAPGKERELVASITVSGDSTYYADSVKGRFTISRDNAKNTVYLQMNSLKPEDTAVYYCAADYYALDKVLGYNYWGQGTQVTVSS | low polyreactivity
QVQLVESGGGLVQAGGSLRLSCAASGRIFIYNAMGWYRQAPGKERELVAAISSGGDTYYADSVKGRFTISRDNAKNTVYLQMNSLKPEDSAVYYCAATFVVKGTRFGYWGQGTQVTVSS | high polyreactivity
QVQLVESGGGLVQAGGSLRLSCAASGRIFIYYARGWYRQAPGKERELVAAISGGGGRTYYADSVKGRFTISRDNAKNTVYLQMNSLKPEDTAVYYCAAGVYTGQDEYDYWGQGTQVTVSS | low polyreactivity
QVQLVESGGGLVQAGGSLRLSCAASGRIFKDNAMGWYRQAPGKERELVATIDSGGDTNYADSVKGRFTISRDNAKNTVYLQMNSLKPEDTAVYYCNTEGFLSAVYAFGYWGQGTQVTVSS | low polyreactivity
QVQLVESGGGLVQAGGSLRLSCAASGRIFKFYAMGWYRQAPGKERELVAGITTSGGSTYYADSVKGRFTISRDNAKNTVYLQMNSLKPEDTAVYYCAASRHFARHRGYYFRYDYWGQGTQVTVSS | high polyreactivity
QVQLVESGGGLVQAGGSLRLSCAASGRIFKGNAMGWYRQAPGKERELVAAISRNGGSTYYADSVKGRFTISRDNAKNTVSLLMNSLKPEDTAVYYCAAYGYRYTEGGWWRMDYWGQGTEVTVSS | high polyreactivity
QVQLVESGGGLVQAGGSLRLSCAASGRIFKGYAMGWYRQAPGKERELVAAITWRGGTTYYADSVKGPFTISRDNAKNTVYLQMNSLKPEDTAVYYCAAANWQRYYYWGQGTQVTVSS | high polyreactivity
QVQLVESGGGLVQAGGSLRLSCAASGRIFKINAMGWYRQAPGKERELVAAITRSGGTTYYADSVMGRFTISRDHAKNTVYLQMNSLKPEDTAVYYCAARVVQYPYYYWGQGTQVTVSS | high polyreactivity
QVQLVESGGGLVQAGGSLRLSCAASGRIFKLNAMGWYRQAPGNERELVAAITFAGGSTYYADSVKGRFTISRDIAKNTVYLQMNSLKPEDTAVYYCNADFSNVEMDYWGQGTQVNVSS | low polyreactivity
QVQLVESGGGLVQAGGSLRLSCAASGRIFKLYAMGLYRQAPGKERELVAASSKSGGSTYYADSVKGRFKISRDNAKNTVYLQMNSLKPEDSAVYYCNADPVRSGLDYWGQGTQVTVSS | high polyreactivity
QVQLVESGGGLVQAGGSLRLSCAASGRIFKNYAKGWYRQAPGKERELVAAISWSGGRTYYSDSVKGRFTISRDNAKNTVYLQMNSLKPEYTAVYYCAARFRRTRVTYYYWGQGTQVTVSS | high polyreactivity
QVQLVESGGGLVQAGGSLRLSCAASGRIFKNYAMGWYRQAPGKERELVAAITWSGGRTYYADSVKGRFTISRDNAKNTVYLQMNSLKPEDTAVYYCATAARRGPTSIEPFGYGSWGQGTQVTVSS | high polyreactivity
QVQLVESGGGLVQAGGSLRLSCAASGRIFKRNAKGWYRQAPGKEWELVATISGSGGSTYYADSVKGRFTISRDNAKNTVYLQMNSLKPEDTAVYYCAAVPGYPRDSLYNYWGQGSQVTVSS | high polyreactivity
QVQLVESGGGLVQAGGSLRLSCAASGRIFKRNAMGWYRQAPGKERELVAAISWRGGSTYYADSVKGRFTISRDNAKNTVYLQMNSLKPEDTAVYYCNVGYGGSSDGGYDYWGQGTQVTVSS | high polyreactivity

Sequence | polyreactivity (PSR sort gate)
QVQLVESGGGLVQAGGSLRLSCAASGRIFKRNVMGWYRQAPGKERELVAAIRYSGGNTYYADSVKGRFTISRDNAKNTVYLQMNSLKPEDTAVYYCAAQQWSYTQSRLYDMGYWGQGTQVTVSS | high polyreactivity
QVQLVESGGGLVQAGGSLRLSCAASGRIFKRYTMGWYRQAPGKERELVAGITFSGGSTYYADSVKGRFTISRDNAKNTVYLQMHSLKPEDTAVYDCNARVPPQGWGPWKAFDYWGQGTQVTVSS | low polyreactivity
QVQLVESGGGLVQAGGSLRLSCAASGRIFKSYTMGWYRQAPGKERALVAGITWSGGSTYYADSVKGRFTISRDNAKNTVYLQMNSLKPDDTAVYYCATKTFYNYGFWGQGTQVTVSS | high polyreactivity
QVQLVESGGGLVQAGGSLRLSCAASGRIFKSYVMGWYRQATGKERELVAAITRTGGSTYYADSVKGRFTISRDNAKNTVYLQMNSLKPVDTAVYYCNARYSWPRATWYDYWGQGTQVTVSS | high polyreactivity
QVQLVESGGGLVQAGGSLRLSCAASGRIFKTYAMGWYRQAPGKERELDAAITASGGRTYYADSVKGRFTISRDNAKNTVYLQMNSLKPEDTAVYYCAADSGNEYDYWGQGTQVTVSS | high polyreactivity
QVQLVESGGGLVQAGGSLRLSCAASGRIFKTYAMGWYRQAPGKERELVAAITASGGRTYYADSVKGRFTISRDNAKNTVYLQMNSLTPEDSAVYYCAAPLLRDLRSPYSYNYWGQGTQVTVSS | low polyreactivity
QVQLVESGGGLVQAGGSLRLSCAASGRIFKVYAMGWSRQAPGKERELVAAITSGGSTNYADSVKGRFTISRDNAKTTVYLQMNSRKPEDTAVYYCAVVSGRWSAVQYDYWGQGTQVTVSS | high polyreactivity
QVQLVESGGGLVQAGGSLRLSCAASGRIFKVYAMGWYRQAHGKEREMVAAITSRGGSTYYADSVKGRFTISRDNSKNTVYLQMNSLKPEDTAVYYCAAARGLPSNKYYYWGQGTQVTVSS | high polyreactivity
QVQLVESGGGLVQAGGSLRLSCAASGRIFKVYAMGWYRQAPGKERELVATISRGGSTYYADSVKGRFTISRDNAKNTVYLQMNSLKPEDTAVYYCATQRERYYWFGAWSYDYWGQGTQVTVSS | low polyreactivity
QVQLVESGGGLVQAGGSLRLSCAASGRIFKWYAMGWYRQAPGKERELVAAISRSGGTTYYADSVKGRFTISSDNAKNTDYLQMNSLKPEDTAVYYCATRNIYFSTVDYWGQGTQVTVSS | high polyreactivity
QVQLVESGGGLVQAGGSLRLSCAASGRIFKYNAMGWYRQAPGKERELVAAISGGGSTNYADSVKGRFTISRDNAKNTVYLQMNSLKPEDTAVYYCAKGYRRVYGPFYYWGQGTQVTVSS | low polyreactivity
QVQLVESGGGLVQAGGSLRLSCAASGRIFKYYAMGWYRQAPGKERELVAAITRNGGITYYADSVKGRFTISRDNAKNTVYLQMNSLKPEDTAVYYCAAGQRGRYSISSDEYNYWGQGTQVTVSS | high polyreactivity
QVQLVESGGGLVQAGGSLRLSCAASGRIFKYYAMGWYRQAPGKERELVARISRSSGNTYYADSVKGRFTISRDNAKNTVYLQMNSLKPEDTAVYYCATVPHYNGFNYWGQGTQVTVSS | high polyreactivity
QVQLVESGGGLVQAGGSLRLSCAASGRIFKYYAMGWYRQAPGKERELVARISSGGGRTYYADSVKGRFTISRDNAKNTVYLQMNSLKPEDTAVYYCAADPPASYHTWYGYWGQGTQVTVSS | high polyreactivity
QVQLVESGGGLVQAGGSLRLSCAASGRIFKYYAMGWYRQAPGKERELVSTISRGGGSTFYADSVKGRFTISRDNAKNTVYLQMNSLKPEDTAVYYCAVDVTFKRWYSTASSTHDYWGQGTQVTVSS | high polyreactivity
QVQLVESGGGLVQAGGSLRLSCAASGRIFKYYVMGWYRQAPGKERELVATISSGSGTNYADSVKGRFTISRDNAKNTVYLQMNSLKPEDTAVYYCAARWTPRVRGYNYWGQGTLVTVSS | high polyreactivity
QVQLVESGGGLVQAGGSLRLSCAASGRIFLFYDMGWYRQAPGKERELVATISFRGGSTYYADSVKGRFTISRDNAKNTVYLQMNSLKPEDTAVYYCAKQNKRGYSTSAYYYWGQGTQVTVSS | low polyreactivity
QVQLVESGGGLVQAGGSLRLSCAASGRIFLGHDMGWYRQAPGKERELVATISSSGDSTYYADSVKGRFTISRDNAKNTVYLQMNSLKPEDTAVYYCAVKSTDVPVRGSPYDYWGQGTQVTVSS | low polyreactivity
QVQLVESGGGLVQAGGSLRLSCAASGRIFLGYAMGWYRQAPGKEREFVAAITSSGGSTYYADSVKGRFTISRDNAKNTVYLLMNSLKPEDTAVYYCAARVTKLRTSSLRGYWGQGTQVTVSS | high polyreactivity
QVQLVESGGGLVQAGGSLRLSCAASGRIFLRYTMGWYRQAPGKERELVAAISARTTGTYYADSVKGRFTISRDNAKNTVYLQMNSLKPEDTAVYYCAAKSKLSRDLFSWGQGTQVTVSS | low polyreactivity
QVQLVESGGGLVQAGGSLRLSCAASGRIFLSYAMGWYRQAPGKEREFVAAITSSGGSTSYADSVKGRFTISRDNAKNTVYLQMNSLKPEDTAVYYCNARAYIFGQLKYDYWGQGTQVTVAS | low polyreactivity
